Experimental data reported in patent US20150071985A1 (HAEMOSTATIX, published 2015).
Where no end group is shown, it is not given here.

T1: human fibrinogen (human, UniProt P02671 20-629; P02675 31-491; P02679 27-437, limits assumed)
T1 construct: also called purified human fibrinogen
T1 sequence (looked up) 1: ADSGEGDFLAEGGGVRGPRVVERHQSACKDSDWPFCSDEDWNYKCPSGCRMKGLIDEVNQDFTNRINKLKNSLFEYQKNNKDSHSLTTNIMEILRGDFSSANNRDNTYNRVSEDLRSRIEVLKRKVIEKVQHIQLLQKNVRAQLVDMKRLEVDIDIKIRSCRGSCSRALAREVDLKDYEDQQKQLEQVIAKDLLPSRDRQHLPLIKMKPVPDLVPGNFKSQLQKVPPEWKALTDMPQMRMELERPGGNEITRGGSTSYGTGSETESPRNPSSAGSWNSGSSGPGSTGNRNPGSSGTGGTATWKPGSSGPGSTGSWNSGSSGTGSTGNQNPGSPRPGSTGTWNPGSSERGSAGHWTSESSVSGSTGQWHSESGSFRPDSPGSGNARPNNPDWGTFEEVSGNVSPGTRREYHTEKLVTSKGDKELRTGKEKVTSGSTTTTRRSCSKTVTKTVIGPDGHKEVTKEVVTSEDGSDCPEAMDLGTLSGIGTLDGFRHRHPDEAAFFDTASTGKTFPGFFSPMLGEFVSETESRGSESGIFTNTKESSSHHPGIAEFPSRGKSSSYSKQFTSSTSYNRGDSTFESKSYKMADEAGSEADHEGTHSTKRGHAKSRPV
T1 sequence (looked up) 2: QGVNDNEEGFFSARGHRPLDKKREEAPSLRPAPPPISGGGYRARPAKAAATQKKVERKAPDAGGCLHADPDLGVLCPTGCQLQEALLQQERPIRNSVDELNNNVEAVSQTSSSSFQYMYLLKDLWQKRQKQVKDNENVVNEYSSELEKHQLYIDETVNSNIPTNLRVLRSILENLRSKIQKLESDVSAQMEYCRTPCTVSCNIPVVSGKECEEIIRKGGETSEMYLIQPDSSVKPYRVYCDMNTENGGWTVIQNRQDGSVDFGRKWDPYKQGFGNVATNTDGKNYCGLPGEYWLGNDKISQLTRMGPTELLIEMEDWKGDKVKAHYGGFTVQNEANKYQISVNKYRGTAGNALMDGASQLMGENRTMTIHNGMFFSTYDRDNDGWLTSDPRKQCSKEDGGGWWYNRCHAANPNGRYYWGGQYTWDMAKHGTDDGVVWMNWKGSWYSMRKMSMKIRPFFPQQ
T1 sequence (looked up) 3: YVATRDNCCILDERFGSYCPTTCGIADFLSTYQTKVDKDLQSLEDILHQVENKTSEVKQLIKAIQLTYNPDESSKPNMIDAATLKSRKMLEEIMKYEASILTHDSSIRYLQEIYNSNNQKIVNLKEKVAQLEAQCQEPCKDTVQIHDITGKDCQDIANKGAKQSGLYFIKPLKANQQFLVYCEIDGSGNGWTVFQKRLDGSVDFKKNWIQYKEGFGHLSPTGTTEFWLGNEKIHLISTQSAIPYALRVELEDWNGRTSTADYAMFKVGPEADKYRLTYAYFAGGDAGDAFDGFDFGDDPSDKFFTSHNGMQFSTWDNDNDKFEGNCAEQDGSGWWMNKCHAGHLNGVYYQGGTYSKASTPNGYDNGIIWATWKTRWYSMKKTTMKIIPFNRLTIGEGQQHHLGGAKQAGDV

B1: GPRPG peptide conjugated to albumin microparticles (peptide)
peptide: GPRPG
modifications: also: conjugated to albumin microparticles, linker and chemistry not given here
notes: Surrogate of PeproStat for the flow cytometry test; also called the particles; not shown: The albumin microparticle carrier

Legend:
human fibrinogen (human) = human fibrinogen (human) (UniProt P02671); experiment: cell-based or functional assay
human fibrinogen = biological target: T1, human fibrinogen; experiment: flow cytometry; peptide-albumin microparticles incubated with fluorescent fibrinogen

| Molecule | Clotting activity (time to clot formation, Sigma Amelung KC4 coagulometer; 30 µL sample at 0.5 mg/ml added to 100 µL purified human fibrinogen at 3 mg/ml) (human fibrinogen (human)) [s] | binding result (human fibrinogen) |
| --- | --- | --- |
| PeproStat (GPRPG-PEG12-maleimide conjugated to thiolated human serum albumin) (from UniProt P02768 25-609) | < 6 |  |
| B1 |  | binds |
